The values below come from US20180037651A1 (Janssen / Centocor, published 2018).

Assay [1] deals with T1, cyno GPRC5D (cyno, UniProt Q9NZD1 1-343 (human entry)).
T1 chain: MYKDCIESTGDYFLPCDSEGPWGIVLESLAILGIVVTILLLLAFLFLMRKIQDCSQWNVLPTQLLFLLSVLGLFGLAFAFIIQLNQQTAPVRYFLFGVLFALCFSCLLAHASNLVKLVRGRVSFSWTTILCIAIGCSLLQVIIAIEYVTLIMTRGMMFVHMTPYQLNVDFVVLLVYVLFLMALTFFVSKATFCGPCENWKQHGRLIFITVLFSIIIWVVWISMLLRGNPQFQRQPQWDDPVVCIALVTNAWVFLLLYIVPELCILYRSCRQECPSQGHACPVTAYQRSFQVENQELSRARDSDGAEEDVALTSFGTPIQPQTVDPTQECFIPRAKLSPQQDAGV
As to the kind of experiment: cell-based or functional assay.

Assay [2] addresses T2, human GPRC5D (human, UniProt Q9NZD1 1-345).
T2 construct: on transfected HEK293/RBL cells or endogenous on myeloma cells (H929, MM1R, OPM2, LP1, JIM3, patient plasma cells); also called G protein-coupled receptor class C group 5 member D; hGPRC5D
Briefly: FACS, MM1R, H929 and human GPRC5D HEK293 cells.

Assay [3] has as its target T2, human GPRC5D. As to the kind of experiment: FACS titration, human GPRC5D HEK293 cells.
For the next assay, the target named is T3, murine GPRC5D (murine, UniProt Q9JIL6 1-344).
T3 construct: also called mouse GPRC5D
T3 sequence: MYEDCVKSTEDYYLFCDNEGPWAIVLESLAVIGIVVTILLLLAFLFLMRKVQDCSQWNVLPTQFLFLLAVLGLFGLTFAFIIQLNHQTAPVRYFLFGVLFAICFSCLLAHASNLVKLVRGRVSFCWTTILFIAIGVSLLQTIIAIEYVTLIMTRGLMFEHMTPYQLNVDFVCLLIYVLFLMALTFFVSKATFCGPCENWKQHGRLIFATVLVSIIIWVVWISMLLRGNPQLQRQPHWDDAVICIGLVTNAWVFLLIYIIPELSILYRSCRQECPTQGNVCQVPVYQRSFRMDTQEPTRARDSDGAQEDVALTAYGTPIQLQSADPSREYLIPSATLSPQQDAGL
Briefly: FACS, murine GPRC5D.

In assay [4] the target is T2, human GPRC5D. As to the kind of experiment: cell-based or functional assay.
In assay [5] the target is T1, cyno GPRC5D. Briefly: cell-based or functional assay.
For assay [6], the target named is T2, human GPRC5D. As to the kind of experiment: FACS binding to plasma cells in MM patient MM303BM bone marrow MNCs. Background: A flow cytometer gives signals particle by particle.
Assay [7] addresses T2, human GPRC5D. As to the kind of experiment: FACS binding to plasma cells in MM patient MM305BM bone marrow MNCs.
Assay [8] deals with T2, human GPRC5D. As to the kind of experiment: FACS, GPRC5D+ MM1.R cells.
Method: The binding affinities of the GPRC5D antibodies on GPRC5D⁺ human MM cell line (MM1.R, purchased from ATCC (American Type Culture Collection)) were measured using FACS.
Binding is expressed as normalized geometrical mean fluorescence intensity as determined by FACS. Graphing and fitting of data were done in GraphPad Prism 6 using nonlinear regression with variable slope (four parameters) and least square fit method.

T2 sequence (Q9NZD1 whole entry): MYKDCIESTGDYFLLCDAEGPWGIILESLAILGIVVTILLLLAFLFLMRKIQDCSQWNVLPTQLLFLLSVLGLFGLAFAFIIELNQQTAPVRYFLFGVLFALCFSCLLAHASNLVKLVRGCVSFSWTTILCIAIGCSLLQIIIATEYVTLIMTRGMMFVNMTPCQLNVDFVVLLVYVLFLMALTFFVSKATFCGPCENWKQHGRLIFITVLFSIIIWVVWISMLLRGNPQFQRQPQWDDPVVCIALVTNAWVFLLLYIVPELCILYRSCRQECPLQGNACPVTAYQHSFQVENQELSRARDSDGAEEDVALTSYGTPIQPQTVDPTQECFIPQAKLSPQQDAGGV

B1: GCDB45 (bispecific antibody, IgG4, V domains shown)
VH 1: EVQLVQSGAEVKKPGESLKISCKGSGYSFTSYWIGWVRQMPGKGLEWMGIIYPGDSDTRYSPSFQGQVTISADKSISTAYLQWSSLKASDTAMYYCARIGFYGRSFRIFDYWGQGTLVTVSS
VL 1: EIVLTQSPATLSLSPGERATLSCRASQSVSSYLAWYQQKPGQAPRLLIYDASNRATGIPARFSGSGSGTDFTLTISSLEPEDFAVYYCQQRSNWPLTFGQGTKVEIK
VH 2: EVQLVESGGGLVQPGGSLRLSCAASGFTFNTYAMNWVRQAPGKGLEWVARIRSKYNNYATYYAASVKGRFTISRDDSKNSLYLQMNSLKTEDTAVYYCARHGNFGNSYVSWFAYWGQGTLVTVSS
VL 2: QTVVTQEPSLTVSPGGTVTLTCRSSTGAVTTSNYANWVQQKPGQAPRGLIGGTNKRAPGTPARFSGSLLGGKAALTLSGVQPEDEAEYYCALWYSNLWVFGGGTKLTVL
notes: IgG4-PAA bispecific; also called GC5B332 x CD3B219
Take B1: the “T cell mediated target cell killing, Cyno GPRC5D EC50” value with cyno GPRC5D [1] was determined as 2.82 nM. Further, the binding result in the assay with human GPRC5D [2] was “binds”.

B2: GCDB44 (bispecific antibody, IgG4, V domains shown)
VH 1: not shown
VL 1: B1 VL 1
VH 2: B1 VH 2
VL 2: B1 VL 2
notes: IgG4-PAA bispecific; also called GC5B320 x CD3B219
Take B2: the binding result with human GPRC5D [3] is “binds”.

B3: GCDB61 (bispecific antibody, IgG4, V domains shown)
VH 1: EVQLVQSGAEVKKPGESLKISCKGSGYSFTSYFIGWVRQMPGKGLEWMGIIYPGKSDTRYSPSFQGQVTISADKSISTAYLQWSSLKASDTAMYYCARVYSFGGRHKALFDYWGQGTLVTVSS
VL 1: B1 VL 1
VH 2: B1 VH 2
VL 2: B1 VL 2
notes: IgG4-PAA by Fab arm exchange; CD3 arm also F405L, R409K; also called GC5B483 x CD3B219
Turning to B3, the MFI with murine GPRC5D came out at 3550 MFI. In addition, the “T-cell redirection cytotoxicity EC50, human GPRC5D HEK cells” value with human GPRC5D [4] came out at 0.03 nM. The “T-cell redirection cytotoxicity EC50, cyno GPRC5D HEK cells” value with cyno GPRC5D [5] stood at 1.22 nM. Further, the figures for the EC50 with human GPRC5D [6] and with human GPRC5D [7] were 5.53 nM and 6.93 nM, respectively.

B4: GCDB32 (bispecific antibody, human IgG4 S228P, lambda, F234A L235A)
heavy 1: not shown
VL: not shown
heavy 2: EVQLVESGGGLVQPGGSLRLSCAASGFTFNTYAMNWVRQAPGKGLEWVARIRSKYNNYATYYAASVKGRFTISRDDSKNSLYLQMNSLKTEDTAVYYCARHGNFGNSYVSWFAYWGQGTLVTVSSASTKGPSVFPLAPCSRSTSESTAALGCLVKDYFPEPVTVSWNSGALTSGVHTFPAVLQSSGLYSLSSVVTVPSSSLGTKTYTCNVDHKPSNTKVDKRVESKYGPPCPPCPAPEAAGGPSVFLFPPKPKDTLMISRTPEVTCVVVDVSQEDPEVQFNWYVDGVEVHNAKTKPREEQFNSTYRVVSVLTVLHQDWLNGKEYKCKVSNKGLPSSIEKTISKAKGQPREPQVYTLPPSQEEMTKNQVSLTCLVKGFYPSDIAVEWESNGQPENNYKTTPPVLDSDGSFLLYSKLTVDKSRWQEGNVFSCSVMHEALHNHYTQKSLSLSLGK
light: QTVVTQEPSLTVSPGGTVTLTCRSSTGAVTTSNYANWVQQKPGQAPRGLIGGTNKRAPGTPARFSGSLLGGKAALTLSGVQPEDEAEYYCALWYSNLWVFGGGTKLTVLGQPKAAPSVTLFPPSSEELQANKATLVCLISDFYPGAVTVAWKADSSPVKAGVETTTPSKQSNNKYAASSYLSLTPEQWKSHRSYSCQVTHEGSTVEKTVAPTECS
notes: IgG4-PAA by Fab arm exchange; also called GC5B81 x CD3B219; copies: 1 + 1 + 1 + 1
As to B4, the MFI with murine GPRC5D came to 1150 MFI. Besides, the “T cell mediated target cell killing, Cyno GPRC5D EC50” value with cyno GPRC5D [1] stood at 0.19 nM. The “T-cell redirection cytotoxicity EC50, human GPRC5D HEK cells” value with human GPRC5D [4] amounted to 0.04 nM. For the same molecule, the “T-cell redirection cytotoxicity EC50, cyno GPRC5D HEK cells” value with cyno GPRC5D [5] is 0.07 nM. Also, the figures for the EC50 with human GPRC5D [6] and with human GPRC5D [7] were 16.1 nM and 70.4 nM, respectively.

B5: GC5B602 (antibody, IgG1, V domains shown)
VH: QVQLVQSGAEVKKPGASVKVSCKASGYSFTGYTMNWVRQAPGQGLEWMGLINPYNGDTNYAQKLQGRVTMTTDTSTSTAYMELRSLRSDDTAVYYCARVALRVALDYWGQGTLVTVSS
VL: DIQMTQSPSSLSASVGDRVTITCKASQNVATHVGWYQQKPGKAPKRLIYSASYRYSGVPSRFSGSGSGTEFTLTISNLQPEDFATYYCQQYNRYPYTFGQGTKLEIK
notes: IgG1 form of GC5B515
B5 displayed an EC50 in the assay with human GPRC5D [8] of 135 nM.

The term EC50 denotes the concentration needed to bring the measured effect to its halfway point. Higher therefore signals weaker potency.
